By Kd is commonly meant the equilibrium constant for the complex coming apart.

Changes are numbered by the printed parent chain. In names and notes the source's numbering stands. Read-outs that look alike come from different tables or passages of the source.

This note sets out measurements from patent US20210269542A1 (POTENZA THERAPEUTICS, published 2021).

One assay has as its target T1, human GITR-Fc (human, UniProt Q9Y5U5 26-162).
T1 construct: also called recombinant hGITR; wild type human GITR-Fc
T1 sequence: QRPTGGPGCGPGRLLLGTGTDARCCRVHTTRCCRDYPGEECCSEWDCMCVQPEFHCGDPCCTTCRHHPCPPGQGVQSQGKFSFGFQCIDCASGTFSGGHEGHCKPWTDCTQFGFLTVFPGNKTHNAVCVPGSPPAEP
Put plainly: BLI Octet RED384, ABP on AHQ sensor, 100 nM antigen, single concentration.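 Also: association and dissociation each tracked over 180 s, with dissociation run in antigen-free buffer.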

Assay [1] addresses T2, human GITR expressed on cells (human, UniProt Q9Y5U5 26-241).
T2 sequence: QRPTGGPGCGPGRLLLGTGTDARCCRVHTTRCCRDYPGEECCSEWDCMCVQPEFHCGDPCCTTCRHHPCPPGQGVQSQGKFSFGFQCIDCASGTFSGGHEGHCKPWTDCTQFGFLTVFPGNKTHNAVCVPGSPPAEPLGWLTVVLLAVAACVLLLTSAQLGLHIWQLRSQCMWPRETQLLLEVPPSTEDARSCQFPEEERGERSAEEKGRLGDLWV
The assay is described as follows: cell-based or functional assay.

For assay [2], the target named is T3, cynomolgus monkey GITR expressed on HT1080 cells (cynomolgus monkey).
T3 chain: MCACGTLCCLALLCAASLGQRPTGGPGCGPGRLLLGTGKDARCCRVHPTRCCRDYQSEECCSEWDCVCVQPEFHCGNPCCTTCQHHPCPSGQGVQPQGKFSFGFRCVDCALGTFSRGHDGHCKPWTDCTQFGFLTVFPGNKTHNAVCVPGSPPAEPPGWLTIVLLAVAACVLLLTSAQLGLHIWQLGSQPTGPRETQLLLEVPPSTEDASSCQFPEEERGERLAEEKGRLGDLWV
Put plainly: cell-based or functional assay.

In another assay the target is T4, cyno GITR-Fc (cynomolgus monkey).
T4 construct: also called cGITR; cynomolgus GITR
T4 chain: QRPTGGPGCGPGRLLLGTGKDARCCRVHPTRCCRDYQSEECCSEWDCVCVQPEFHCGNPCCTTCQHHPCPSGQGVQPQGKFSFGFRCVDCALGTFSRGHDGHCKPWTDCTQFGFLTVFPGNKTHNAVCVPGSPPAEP
The assay is described as follows: BLI Octet RED384, ABP on AHQ sensor, 100 nM antigen, single concentration.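 Also: association and dissociation each tracked over 180 s, with dissociation run in antigen-free buffer.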 For orientation: Biolayer interferometry detects binding as a change in optical thickness at a sensor tip.

The target in assay [3] is T2, human GITR expressed on cells. The assay is described as follows: cell-based or functional assay. The source holds these as a separate data set.
The target in assay [4] is T3, cynomolgus monkey GITR expressed on …. The assay is described as follows: cell-based or functional assay.
Assay [5] has as its target T2, human GITR expressed on cells. Put plainly: cell-based or functional assay. The source holds these as a separate data set.
Assay [6] has as its target T3, cynomolgus monkey GITR expressed on …. The assay is described as follows: cell-based or functional assay.
In assay [7] the target is T2, human GITR expressed on cells. The assay is described as follows: cell-based or functional assay. This is another data set of the same source.
Assay [8] concerns the target T3, cynomolgus monkey GITR expressed on …. Put plainly: cell-based or functional assay.
The target of assay [9] is T2, human GITR expressed on cells. Put plainly: cell-based or functional assay. The source holds these as a separate data set.
The target is the same in assay [10]. Put plainly: cell-based or functional assay. The source holds these as a separate data set.

Method for cyno GITR-Fc: (§1) The sensors were quenched by dipping into an unrelated human IgG1 antibody to prevent non-specific binding of GITR-Fc antigens to the sensor. The sensors were equilibrated in assay buffer for 30 minutes. Baseline was established by dipping the sensors into assay buffer for 60 seconds. Association was monitored for 180 seconds in 100 nM of recombinant antigens, and dissociation was followed for 180 seconds in buffer alone. KD was determined using the kinetic function of the FORTEBIO® Analysis Software using a 1:1 binding model.
Method for human GITR-Fc: as §1

B1: ABP45 (antibody, human IgG1, kappa, N297A, V domains shown)
VH: QVQLVQSGAEVKKPGSSVKVSCKASGGTFSRGAISWVRQAPGQGLEWMGGIIPIEGTAYYAQKFQGRVTITADESTSTAYMELSSLRSEDTAVYYCARQSDYGLPRGMDVWGQGTTVTVSS
VL: DIQLTQSPSSVSASVGDRVTITCRASQGISSWLAWYQQKPGKAPKLLIYGASSLQSGVPSRFSGSGSGTDFTLTISSLQPEDFATYYCQQASLFPPTFGGGTKVEIKR
notes: IgG1 N297A, H1H2-optimized, non-TM
For B1, in the assay with human GITR-Fc, the equilibrium dissociation constant (Kd) stood at 112 nM. Moreover, the “EC50 in human HT1080 (IL-8 induction), n = 2” value (shortened to “EC50 in human HT1080 … n = 2”) in assay [1] was found to be 10.5 nM. In addition, the “EC50 in cynomolgus HT1080 (IL-8 induction), n = 1” value (“EC50 in cynomolgus HT1080 … n = 1” for short) in assay [2] was found to be 15.1 nM.

B2: ABP46 (antibody, human IgG1, kappa, N297A, V domains shown)
VH: QVQLVQSGAEVKKPGSSVKVSCKASGGTFSSYAISWVRQAPGQGLEWMGGIIPISGFANYAQKFQGRVTITADESTSTAYMELSSLRSEDTAVYYCAREGGHYYSGWPYWGQGTLVTVSS
VL: EIVLTQSPATLSLSPGERATLSCRASQSVSSYLAWYQQKPGQAPRLLIYDASNRATGIPARFSGSGSGTDFTLTISSLEPEDFAVYYCQQRLVFPPTFGGGTKVEIKR
notes: as for B1
As to B2, the Kd with cyno GITR-Fc is 111 nM; in the assay with human GITR-Fc, 59.8 nM. The “EC50 in human HT1080 … n = 2” value in assay [1] turned out to be 1.2 nM. Moreover, the “EC50 in cynomolgus HT1080 … n = 1” value in assay [2] was 6.9 nM.

B3: ABP47 (antibody, human IgG1, kappa, N297A, V domains shown)
VH: QVQLVQSGAEVKKPGSSVKVSCKASGGTFVRYAISWVRQAPGQGLEWMGGIIPIFGEAQYAQKFQGRVTITADESTSTAYMELSSLRSEDTAVYYCAREGYYYGALPYWGQGTLVTVSS
VL: B2 VL with R91H, L92S
notes: as for B1
With B3, the results for the Kd with cyno GITR-Fc and in the assay with human GITR-Fc were 88.1 nM and 44.3 nM, respectively. In addition, the “EC50 in human HT1080 … n = 2” value in [1] was determined as 4.1 nM. In [2], the “EC50 in cynomolgus HT1080 … n = 1” value came to 11.8 nM.

B4: trimeric human GITR ligand (ligand, UniProt Q9UNG2 50-177, looked up)
chain: QLETAKEPCMAKFGPLPSKWQMASSEPPCVNKVSDWKLEILQNGLYLIYGQVAPNANYNDVAPFEVRLYKNKDMIQTLTNKSKIQNVGGTYELHVGDTIDLIFNSEHQVLKNNTYWGIILLANPQFIS
In the case of B4, the “EC50 in human HT1080 (IL-8 induction)” value in assay [3] amounted to 0.4 nM. For the same molecule, the “EC50 in cynomolgus HT1080 (IL-8 induction)” value in assay [4] was 0.2 nM. Besides, in assay [5], the “Average EC50 in human HT1080 (IL-8 induction)” value (“Average EC50 in human HT1080” for short) turned out to be 0.43 nM. Further, in assay [6], the “Average EC50 in cynomolgus HT1080 (IL-8 induction)” value was found to be 0.17 nM. Besides, the “Average EC50 in human HT1080” value in assay [7] worked out at 0.12 nM. In assay [8], the “Average EC50 in cynomolgus HT1080 (IL-8 induction)” value was determined as 0.076 nM. In addition, in assay [9], the “Average EC50 in human HT1080” value was 0.37 nM. In [10], the “EC50, Jurkat cells expressing human GITR (run with ABP 1)” value was 0.9 nM; the “EC50, Jurkat cells expressing human GITR (run with ABP 2)” value is 0.91 nM; the “EC50, Jurkat cells expressing human GITR (run with ABP 3)” value came to 0.85 nM; the “EC50, Jurkat cells expressing human GITR (run with ABP 4)” value came out at 1.13 nM. In assay [10], the “EC50, Jurkat cells expressing human GITR (run with ABP 5)” value came out at 1.01 nM; the “EC50, Jurkat cells expressing human GITR (run with ABP 6)” value came to 0.9 nM; the “EC50, Jurkat cells expressing human GITR (run with ABP 7)” value worked out at 0.81 nM; the “EC50, Jurkat cells expressing human GITR (run with ABP 8)” value came out at 0.89 nM.

B5: ABP20 (antibody, human IgG4 S228P, kappa)
heavy: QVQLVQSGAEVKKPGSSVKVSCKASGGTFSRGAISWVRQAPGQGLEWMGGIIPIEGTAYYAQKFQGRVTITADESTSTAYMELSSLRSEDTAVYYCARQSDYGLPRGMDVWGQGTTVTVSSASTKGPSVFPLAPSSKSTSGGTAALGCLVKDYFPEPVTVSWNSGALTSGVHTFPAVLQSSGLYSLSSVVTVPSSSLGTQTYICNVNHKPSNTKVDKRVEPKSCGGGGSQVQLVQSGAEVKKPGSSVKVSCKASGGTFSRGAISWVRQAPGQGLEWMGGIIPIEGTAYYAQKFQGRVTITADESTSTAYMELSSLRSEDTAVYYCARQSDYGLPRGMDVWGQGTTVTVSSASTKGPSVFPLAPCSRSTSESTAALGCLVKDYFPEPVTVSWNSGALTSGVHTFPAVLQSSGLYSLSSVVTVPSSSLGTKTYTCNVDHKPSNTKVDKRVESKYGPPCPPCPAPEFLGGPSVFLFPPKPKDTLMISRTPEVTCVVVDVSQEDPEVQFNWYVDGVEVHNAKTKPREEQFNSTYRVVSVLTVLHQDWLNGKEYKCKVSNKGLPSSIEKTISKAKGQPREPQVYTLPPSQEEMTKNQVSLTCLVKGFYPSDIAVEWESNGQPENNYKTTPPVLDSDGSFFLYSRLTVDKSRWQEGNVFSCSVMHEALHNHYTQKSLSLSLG
light: DIQLTQSPSSVSASVGDRVTITCRASQGISSWLAWYQQKPGKAPKLLIYGASSLQSGVPSRFSGSGSGTDFTLTISSLQPEDFATYYCQQASLFPPTFGGGTKVEIKRTVAAPSVFIFPPSDEQLKSGTASVVCLLNNFYPREAKVQWKVDNALQSGNSQESVTEQDSKDSTYSLSSTLTLSKADYEKHKVYACEVTHQGLSSPVTKSFNRGEC
notes: TM format, N-terminal Fab: VH + IgG1 CH1 + GGGGS + VH + IgG4 S228P
B5: the results for the Kd with cyno GITR-Fc and with human GITR-Fc were 5.2 nM and 4.4 nM, respectively. For the same molecule, the “Average EC50 in human HT1080” value in [9] stood at 0.63 nM.

B6: ABP26 (antibody, human IgG4 S228P, kappa)
heavy: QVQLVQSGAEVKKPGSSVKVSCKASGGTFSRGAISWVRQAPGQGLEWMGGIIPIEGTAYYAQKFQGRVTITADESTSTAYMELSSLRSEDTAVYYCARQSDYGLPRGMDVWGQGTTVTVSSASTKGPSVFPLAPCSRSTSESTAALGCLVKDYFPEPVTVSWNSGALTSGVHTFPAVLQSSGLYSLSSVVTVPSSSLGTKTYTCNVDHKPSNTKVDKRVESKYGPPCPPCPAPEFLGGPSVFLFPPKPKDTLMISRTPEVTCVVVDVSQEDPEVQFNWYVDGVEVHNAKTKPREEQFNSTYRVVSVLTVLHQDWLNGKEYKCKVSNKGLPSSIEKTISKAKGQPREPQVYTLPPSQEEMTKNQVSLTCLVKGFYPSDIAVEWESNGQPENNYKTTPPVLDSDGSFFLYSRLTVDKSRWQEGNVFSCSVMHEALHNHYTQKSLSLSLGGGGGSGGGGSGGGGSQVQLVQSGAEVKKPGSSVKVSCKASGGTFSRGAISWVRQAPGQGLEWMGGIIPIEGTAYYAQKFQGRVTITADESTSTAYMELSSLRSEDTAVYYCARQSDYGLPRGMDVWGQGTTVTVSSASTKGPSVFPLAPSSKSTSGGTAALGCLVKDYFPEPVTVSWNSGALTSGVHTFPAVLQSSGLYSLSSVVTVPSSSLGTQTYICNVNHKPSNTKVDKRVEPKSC
light: B5 light
As for B6, the Kd in the assay with cyno GITR-Fc and with human GITR-Fc was 5.1 nM throughout. The “Average EC50 in human HT1080” value in assay [9] is 0.63 nM.

B7: ABP49 (antibody, human IgG1, kappa, N297A, V domains shown)
VH: QVQLQESGPGLVKPSQTLSLTCTVSGGSISSGGAVWSWIRQHPGKGLEWIGGIAYSGSTYYNPSLKSRVTISVDTSKNQFSLKLSSVTAADTAVYYCARDSVRGYGDYGGHHAFDIWGQGTMVTVSS
VL: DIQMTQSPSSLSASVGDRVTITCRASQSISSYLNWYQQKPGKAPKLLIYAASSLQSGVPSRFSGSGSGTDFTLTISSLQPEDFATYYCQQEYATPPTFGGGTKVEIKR
notes: as for B1
As for B7, the binding result with cyno GITR-Fc was “no binding (tested: 100 nM)”. In addition, the dissociation constant Kd with human GITR-Fc was determined as 63.5 nM. Further, the “EC50 in human HT1080 … n = 2” value in assay [1] worked out at 2.7 nM. In addition, the “EC50 in cynomolgus HT1080 … n = 1” value in assay [2] was 65.8 nM.
